Experimental data as given in publication PMC8024709, “DNA ligase I fidelity mediates the mutagenic ligation of pol β oxidized and mismatch nucleotide insertion products in base excision repair”.

Key:
[1] = target: LIG1 E346A/E592A (EE/AA) low-fidelity mutant (Homo sapiens, UniProt P18858 1-919, E346A;E592A); test: BLI; no Mg2+ or ATP listed in kinetics buffer; BLI (Octet QKe, streptavidin sensors, 40 nM DNA loaded, LIG1 10-2430 nM): Hepes pH 7.4, 200 mM NaCl, 0.5% BSA, 0.05% Tween 20, 20 °C; 1:1 binding model; conditions: protein: recombinant; tags: His-tag; label: 3'-biotin on downstream strand (S2); 1-nt gap opposite template T; 34-nt template (S7 equals S4 reversed to 5'-3') with 17-nt upstream and 16-nt downstream strands; outer ends blunt
[2] = target: DNA ligase I (LIG1) wild-type (Homo sapiens, UniProt P18858 1-919); test: as above; conditions: protein: recombinant; tags: His-tag; label: 3'-biotin on downstream strand (S2); 1-nt gap opposite template T; 34-nt template (S7 equals S4 reversed to 5'-3') with 17-nt upstream and 16-nt downstream strands; outer ends blunt
Sequence of DNA ligase I (LIG1) wild-type (P18858 whole entry): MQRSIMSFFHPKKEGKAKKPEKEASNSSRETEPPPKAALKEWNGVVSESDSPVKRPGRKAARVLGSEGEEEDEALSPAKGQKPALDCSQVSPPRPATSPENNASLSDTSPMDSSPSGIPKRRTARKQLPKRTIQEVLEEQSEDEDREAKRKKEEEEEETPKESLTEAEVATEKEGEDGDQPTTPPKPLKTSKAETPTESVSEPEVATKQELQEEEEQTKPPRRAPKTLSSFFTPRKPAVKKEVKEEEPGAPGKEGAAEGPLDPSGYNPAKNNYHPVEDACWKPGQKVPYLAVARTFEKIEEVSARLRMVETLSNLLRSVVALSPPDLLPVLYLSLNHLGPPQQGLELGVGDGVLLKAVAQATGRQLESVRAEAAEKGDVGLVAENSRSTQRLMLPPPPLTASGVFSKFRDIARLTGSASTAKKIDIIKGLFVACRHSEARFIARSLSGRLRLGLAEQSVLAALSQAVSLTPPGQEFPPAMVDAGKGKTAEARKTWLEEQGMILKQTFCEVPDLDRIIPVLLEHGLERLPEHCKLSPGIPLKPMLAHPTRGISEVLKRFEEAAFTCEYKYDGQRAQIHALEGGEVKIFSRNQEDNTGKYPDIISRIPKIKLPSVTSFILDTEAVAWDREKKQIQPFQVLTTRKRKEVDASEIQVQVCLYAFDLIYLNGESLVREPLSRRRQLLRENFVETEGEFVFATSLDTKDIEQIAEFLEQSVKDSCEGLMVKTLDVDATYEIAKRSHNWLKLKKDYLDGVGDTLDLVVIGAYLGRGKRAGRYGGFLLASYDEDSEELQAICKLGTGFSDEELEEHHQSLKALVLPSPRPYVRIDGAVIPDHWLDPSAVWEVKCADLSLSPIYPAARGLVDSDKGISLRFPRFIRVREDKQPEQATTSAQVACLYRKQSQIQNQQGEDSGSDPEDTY

Sequence of LIG1 E346A/E592A (EE/AA) low-fidelity mutant (P18858 whole entry E346A/E592A): as the sequence (P18858 whole entry) above, with E346A, E592A counted along it

B1: one-nucleotide-gap DNA, template T (BLI) (dsDNA)
DNA 1: CATGGGCGGCATGAACC
DNA 2: GAGGCCCATCCTCACC
DNA 3: GGTGAGGATGGGCCTCTGGTTCATGCCGCCCATG
Kd [1]: ~20 nM | Kd [2]: ~83 nM
